Measured values as given in patent US20070248589A1 (GOVERNMENT OF THE UNITED STATES OF AMERICA AS REPRESENTED …, published 2007).

T1: GST-SPATIAL(S) (Mus musculus, UniProt Q7TSD4)
T1 construct: made in house
T1 sequence (Q7TSD4 with tags, fused parts or gaps isoform Q7TSD4-7 limits assumed): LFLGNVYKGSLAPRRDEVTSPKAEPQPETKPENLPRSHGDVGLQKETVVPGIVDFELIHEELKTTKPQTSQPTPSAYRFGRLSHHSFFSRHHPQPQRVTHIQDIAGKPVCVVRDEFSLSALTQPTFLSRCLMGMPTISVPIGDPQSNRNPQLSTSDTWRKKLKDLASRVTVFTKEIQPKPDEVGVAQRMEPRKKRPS

T2: GST-SPATIAL(L) (Mus musculus, UniProt Q7TSD4)
T2 construct: made in house
T2 sequence (Q7TSD4 with tags, fused parts or gaps isoform Q7TSD4-6 limits assumed): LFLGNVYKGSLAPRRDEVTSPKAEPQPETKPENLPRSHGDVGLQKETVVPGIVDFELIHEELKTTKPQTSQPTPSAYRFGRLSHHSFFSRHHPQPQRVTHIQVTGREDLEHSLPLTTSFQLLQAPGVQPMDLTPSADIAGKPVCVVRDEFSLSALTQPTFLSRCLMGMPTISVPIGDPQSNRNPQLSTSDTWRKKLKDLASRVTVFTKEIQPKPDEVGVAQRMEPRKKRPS


Tests used:
[1] = test system: lymphoid cells; experiment: Thymocyte depletion of fetal thymic organ culture (FTOC); type: cell-based, mouse; conditions: after 14 days, flow cytometric analysis
Excerpt: SPATIAL expression cannot be detected in thymocytes using RT-PCR on RNA obtained from highly purified CD45+ thymocytes prepared by flow cytometer sorting from normal mice. Actin and cyclophilin mRNA was readily detected using the same RNA samples. To examine SPATIAL expression in stromal cells, thymii from day 14 mouse fetuses were harvested and cultured in fetal thymic organ culture (FTOC). The FTOC was specifically depleted of thymocytes using 2-deoxyguanosine treatment 2-deoxyguanosine is a nucleotide analog that is toxic to thymocytes. […] These cultures can be re-colonized by stem cells and are fully capable of supporting thymopoiesis (Hare et al., Semin. Immunol., 11(1):3-12, 1999). Using RT-PCR, it was shown that SPATIAL is abundantly expressed in thymic stromal cells obtained from FTOC (Flomerfelt et al., Genes and Immunity, 1:391-401, 2000).

[2] = test system: Hb12 cells; experiment: Bcl-2 expression assay, SPATIAL-EGFP transfected Bcl-2 expressing thymocyte cell line; type: cell-based, mouse; conditions: Bcl-2 expression, FIG. 17B
Method: The mouse thymocyte cell line Wehi 7.2 and its variant Wbcl-2, which over expresses bcl-2, were maintained in DMEM supplemented with 10% heat-inactivated FBS, 2 mM glutamine, 100 U/ml penicillin, and 0.1 mg/ml streptomycin. Cells were grown at 37° C. in a humidified atmosphere with 5% CO2.
Transient transfections were performed using either lipids (Lipofectamine 2000 or FreeStyle 293 Expression System, each supplied by Invitrogen, Rockville, Md.) or calcium phosphate (Mammalian Transfection Kit; Stratagene, La Jolla, Calif.) or electroporation. Manufacturer instructions were followed for lipid and calcium phosphate transfections. For electroporation, the following procedure was used: Before transfection, Wehi cell and Wbcl-2 cells were counted and suspended in fresh complete DMEM without antibiotics at 5×10^5 cells/ml in a 15 cm dish. On the day of transfection, the cells were washed with PBS twice and were suspended in serum free DMEM at 6.25×10^6 cells/mL Aliquots of 800 μl cell suspension were transferred to a 4 mm electroporation cuvette and 10 μg of plasmid DNA solution was added. After 10 minutes incubation on ice, the cells were electroporated under the condition of 310 V, 725 ohms resistance, and 1050 μF capacitance. The transfected cells were incubated on ice for 10 minutes and suspended in complete DMEM in 10 cm dishes at the density of 7.5×10^4 viable cells/ml. […]

[3] = molecular target: T1, GST-SPATIAL(S); experiment: GST pulldown assay with GST-SPATIAL short isoform; type: binding; conditions: 35S-methionine labeled in vitro translated protein
Method: (§1) Eighteen cDNA clones identified in the yeast two-hybrid system were tested in an in vitro glutathione-S-transferase (GST) pulldown assay, as described in Ausubel et al., Current Protocols in Molecular Biology, Greene Publishing Associates, updated November 2003, Chapter 20, Analysis of Protein Interactions, Unit 20.2, Affinity Purification of Proteins Binding to GST Fusion Proteins.
(§2) Briefly, a GST-SPATIAL fusion construct was produced by cloning SPATIAL cDNA(s) into pGEx5X1 expression vector using standard molecular cloning techniques. GST or GST-SPATIAL fusion protein were expressed in 1-1000 ml bacterial cultures grown for 3-4 hours until OD600 reached 0.5. Then, plasmid expression was induced for 1.5-4 hours by the addition of ITPG to a final concentration of 0.11 mM. GST or GST-fusion proteins were purified using glutathione-Sepharose beads as described in Ausubel et al., Current Protocols in Molecular Biology, Greene Publishing Associates, updated November 2003, Chapter 20, Analysis of Protein Interactions, Unit 20.2, Affinity Purification of Proteins Binding to GST Fusion Proteins.
(§3) A coupled in vitro transcription and translation system (Promega) was used according to the manufacturer's instructions to produce radiolabeled protein from cDNAs to be tested. Radiolabeled proteins were mixed with either purified GST or GST-SPATIAL. Then, GST-containing protein complexes were purified by centrifugation from the reaction mixtures using glutathione-coated Sepharose beads. Bound proteins were eluted from the beads with SDS-PAGE loading buffer heated to 72-85° C., separated on polyacrylamide gels, and visualized by autoradiography. Specific interactions between GST-SPATIAL and in vitro translated proteins were indicated by the presence of a radiolabeled in vitro translated protein in the GST-SPATIAL-containing samples, but not in the GST-alone samples.
(§4) GST pulldown assays were performed as described in Example 9 using GST-SPATIAL(L) and GST-SPATIAL(S) and each of the Uba3 mutants described in this example.

[4] = molecular target: T2, GST-SPATIAL(L); experiment: GST pulldown assay with GST-SPATIAL long isoform; type: binding; conditions: 35S-methionine labeled in vitro translated protein
Method: as §1, §2, §3, §4

[5] = molecular target: T3, Uba3 deletion mutant Delta364-912 (mouse, UniProt Q8C878 22-462, 35S-methionine labeled); experiment: GST pulldown of 35S-labelled in vitro translated Uba3 mutant
T3 construct: Amino acids 109-291 are deleted (PstI fragment removed); also called PstI digest
Method: as §3, §4

| Molecule | interaction with GST-SPATIAL(S) [3] | interaction with GST-SPATIAL(L) [4] | also measured |
| --- | --- | --- | --- |
| Nc1nc2c(ncn2[C@H]2C[C@H](O)[C@@H](CO)O2)c(=O)[nH]1 [2-deoxyguanosine] | – | – | lymphoid cells depleted [1]: greater than 98% |
| Bcl-2: human Bcl-2 gene expressed in Hb12 cells, inhibits apoptosis | – | – | reversal of growth suppressive effect of SPATIAL-EGFP transfection [2]: ineffective to reverse the growth suppressive effect |
| Delta364-912: Uba3 deletion mutant, amino acid deletion 109-291 (PstI digest) | does not interact | does not interact | – |
| GST-SPATIAL long isoform fusion protein (other, SPATIAL cDNA cloned into pGEx5X1, expressed in bacteria and held on glutathione-Sepharose beads; not shown: glutathione-S-transferase (GST) encoded by the pGEx5X1 expression vector) LFLGNVYKGSLAPRRDEVTSPKAEPQPETKPENLPRSHGDVGLQKETVVPGIVDFELIHEELKTTKPQTSQPTPSAYRFGRLSHHSFFSRHHPQPQRVTHIQVTGREDLEHSLPLTTSFQLLQAPGVQPMDLTPSADIAGKPVCVVRDEFSLSALTQPTFLSRCLMGMPTISVPIGDPQSNRNPQLSTSDTWRKKLKDLASRVTVFTKEIQPKPDEVGVAQRMEPRKKRPS | – | – | binding result [5]: no binding |
| GST-SPATIAL short isoform fusion protein (other, SPATIAL cDNA cloned into pGEx5X1, expressed in bacteria and held on glutathione-Sepharose beads; not shown: glutathione-S-transferase (GST) encoded by the pGEx5X1 expression vector) LFLGNVYKGSLAPRRDEVTSPKAEPQPETKPENLPRSHGDVGLQKETVVPGIVDFELIHEELKTTKPQTSQPTPSAYRFGRLSHHSFFSRHHPQPQRVTHIQDIAGKPVCVVRDEFSLSALTQPTFLSRCLMGMPTISVPIGDPQSNRNPQLSTSDTWRKKLKDLASRVTVFTKEIQPKPDEVGVAQRMEPRKKRPS | – | – | binding result [5]: no binding |
| Delta24-646: Uba3 deletion mutant, amino acid deletion 1-202 (protein) TLELYPPQVNFPMCTIASMPRLPEHCIEYVRMLQWPKEQPFGDGVPLDGDDPEHIQWIFQKSIERASQYNIRGVTYRLTQGVVKRIIPAVASTNAVIAAVCATEVFKIATSAYIPLNNYLVFNDVDGLYTYTFEAERKENCPACSQLPQNIQFSPSAKLQEVLDYLTNSASLQMKSPAITATLEGKNRTLYLQSVTSIEERTRPNLSKTLKELGLVDGQELAVADVTTPQTVLFKLHFT | interact | interact | – |
| Delta941-1365: Uba3 deletion mutant, amino acid deletion 301-441 (protein) MAVDGGCGDTGDWEGRWNHVKKFLERSGPFTHPDFEPSTESLQFLLDTCKVLVIGAGGLGCELLKNLALSGFRQIHVIDMDTIDVSNLNRQFLFRPKDVGRPKAEVAAEFLNDRVPNCNVVPHFNKIQDFNDTFYRQFHIIVCGLDSIIARRWINGMLISLLNYEDGVLDPSSIVPLIDGGTEGFKGNARVILPGMTACIECTLELYPPQVNFPMCTIASMPRLPEHCIEYVRMLQWPKEQPFGDGVPLDGDDPEHIQWIFQKSIERASQYNIRGVTYRLTQGVVKRIIPAVASTNAVIA | interact | interact | – |
